In PMC11870394 (bioRxiv, 2025):

B1: RSV-2245 Fab (Fab, V domains shown)
VH: QVQLVQSGAEVKKPGASVKVSCKASGYSFSSFGVSWVRQAPGQGLEWLGWISAYNGNTDYAQKVQGRLTMTTDTSTNTAYMELRNLRSDDTAVYYCARDPPASAAAMFDYWGQGTLVTVSS
VL: not shown
B2: RSV-3301 Fab (Fab, V domains shown)
VH: QVQLVESGPTLVKPTQTLTLTCSFSGFSLSTRGVGVGWVRQPPGKALECLGFTYWDGDEYYSPSLRNRVTISKDTSKNQVVLTLTNMDPVDTATYFCVHSDLYDRGGYYLYYFDYWGQGTLVTVSS
VL: DIRVTQSPSSLSASVGDRVTITCRASQTIASYVNWYQQKPGRAPELLIYAASILQSGVPSRFSGRGSGTDFTLTINGLQPEDFATYYCQQSYSSPWTFGQGTKVEIK

Biological target: RSV prefusion F (PR-DM) (respiratory syncytial virus A, UniProt P03420)
Assay: cryo-EM structure

| Binder | stoichiometry N [Fab per F trimer] |
| --- | --- |
| B1 | 3 |
| B2 | 3 |
